Molecular target: T1, Cdc34A^FL, full length Cdc34A (residues 1-236) (human, UniProt P49427 1-236)
T1 sequence: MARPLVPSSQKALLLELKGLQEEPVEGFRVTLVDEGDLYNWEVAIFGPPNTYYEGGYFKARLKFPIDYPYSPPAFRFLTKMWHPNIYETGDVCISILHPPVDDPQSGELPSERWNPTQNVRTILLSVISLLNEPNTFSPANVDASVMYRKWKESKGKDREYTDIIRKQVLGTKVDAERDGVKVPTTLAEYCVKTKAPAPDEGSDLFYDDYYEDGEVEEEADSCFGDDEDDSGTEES
Assay: NMR titration

B1: Rbx1^12-108-SSQS, Rbx1 fragment that contains the RING domain (residues 12-108) (domain or fragment)
chain: not shown
- binding result: binds
